Data as given in patent US4546077A, “Leucine dehydrogenase and a process for production thereof” (Unitika Ltd., priority 1982, dated 1985).

Columns and labels:
[1] = substrate: CC(C)C[C@H](N)C(=O)O; experiment: Michaelis constants of leucine dehydrogenase; type: biochemical; settings: other: purified leucine dehydrogenase from Bacillus stearothermophilus; pH 11.0; 55.0 °C
Experimental: (§1) Next, physico-chemical properties of the thus obtained leucine dehydrogenase of the present invention are shown below, wherein the leucine dehydrogenase was obtained from Bacillus stearothermophilus.
(§2) A solution mixture containing 1.25 mM NAD and 10 mM L-leucine in a […] glycine-KCl-KOH buffer solution having pH 11 was prepared. A suitable amount of a leucine dehydrogenase was added to the solution mixture and the increment of a reduced type NAD per unit time at 55° C. was measured as an increment of the absorbancy at 340 nm. The amount of the enzyme which made it possible to increase the absorbancy of 1μ mole of NADH at 340 nm per minute was set at 1 unit.

[2] = substrate: NC(=O)c1ccc[n+]([C@@H]2O[C@H](COP(=O)([O-])OP(=O)(O)OC[C@H]3O[C@@H](n4cnc5c(N)ncnc54)[C@H](O)[C@@H]3O)[C@@H](O)[C@H]2O)c1; experiment: Michaelis constants of leucine dehydrogenase; type: biochemical; settings: other: purified leucine dehydrogenase from Bacillus stearothermophilus; pH 11.0; 55.0 °C
Experimental: as §1, §2

B1: leucine dehydrogenase obtained from Bacillus stearothermophilus (Geobacillus stearothermophilus) (protein)
chain: MELFKYMETYDYEQVLFCQDKESGLKAIIAIHDTTLGPALGGTRMWMYNSEEEALEDALRLARGMTYKNAAAGLNLGGGKTVIIGDPRKDKNEAMFRAFGRFIQGLNGRYITAEDVGTTVADMDIIYQETDYVTGISPEFGSSGNPSPATAYGVYRGMKAAAKEAFGSDSLEGKVVAVQGVGNVAYHLCRHLHEEGAKLIVTDINKEVVARAVEEFGAKAVDPNDIYGVECDIFAPCALGGIINDQTIPQLKAKVIAGSADNQLKEPRHGDIIHEMGIVYAPDYVINAGGVINVADELYGYNRERAMKKIEQIYDNIEKVFAIAKRDNIPTYVAADRMAEERIETMRKARSPFLQNGHHILSRRRAR
notes: the leucine dehydrogenase was obtained from Bacillus stearothermophilus; endogenous in cells; host or cells: Bacillus stearothermophilus (enzyme isolated and purified from the cultured bacteria)
[1]
  Km: 1500 µM
[2]
  Km: 400 µM
